From US20240150440A1 (LUMEN BIOSCIENCE, published 2024)
Where two headings read alike, the source gives them in different places.

B1: MBP-5HVZ-R5C-E1-H6 (VHH, not shown: large carriers; small tags and cut ends)
VHH: QVQLVESGGGLVQPGGSLRLSCAASGYIFSATVMHWFRQAPGKQREGVASINSTGSSQYADSVKGRFTISRDNAKNTVYLQMNSLKPEDTAVYYCAADGADVVYGNRYWGQGTQVTVSS
B2: MBP-R5C-E3-H6 (VHH, not shown: large carriers; small tags and cut ends)
VHH: QVQLVESGGGLVQPGGSLRLSCAASGSFFSINAVHWFRQAPGKEREFVASISVGDSRSYRDSVKGRFTISRDNAKNTVYLQMNSLKPEDTAVYYCAAQIYITTYELYDYWGQGTQVTVSS
B3: MBP-5HVZ-R5C-E3-H6 (VHH, not shown: large carriers; small tags and cut ends)
VHH: B2 VHH
B4: PP1101 MBP-5HVZ-PAPA-RN-16-H6 (VHH)
VHH: QVQLVESGGGLVQPGGSLRLSCAASGADFSSNAMHWFRQAPGKAREFVASIDSDKSGYYADSVKGRFTISRDNAKNTVYLQMNSLKPEDTAVYYCNAYSGTDNYGYDYWGQGTQVTVSS
notes: Form: Dimer
B5: PP1102 MBP-5HVZ-PAPA-RN-17-H6 (VHH)
VHH: QVQLVESGGGLVQPGGSLRLSCAASGSMYSRAVMHWFRQAPGKEREGVASIGRTGDSYYADSVKGRFTISRDNAKNTVYLQMNSLKPEDTAVYYCAADNLDVVYGNRYWGQGTQVTVSS
notes: Form: Dimer
B6: PP1103 MBP-5HVZ-PAPA-RN-18-H6 (VHH)
VHH: QVQLVESGGGLVQPGGSLRLSCAASGYYFQIVAMHWYRQAPGKEREGVAGITSTGSTYYGDSVKGRFTISRDNAKNTVYLQMNSLKPEDTAVYYCNAVSTDAQGAAEYWGQGTQVTVSS
notes: Form: Dimer
B7: PP1104 MBP-5HVZ-PAPA-RN-19-H6 (VHH)
VHH: QVQLVESGGGLVQPGGSLRLSCAASGIDDSIGAMHWFRQAPGKGREFVAALSGTGTTSYADSVKGRFTISRDNAKNTVYLQMNSLKPEDTAVYYCAAAFPAGGDYWGQGTQVTVSS
notes: Form: Dimer
B8: PP1105 MBP-5HVZ-PAPA-RN-20-H6 (VHH)
VHH: QVQLVESGGGLVQPGGSLRLSCAASGNYFEINKMHWFRQAPGKQREFVATIGSGGSTAYADSVKGRFTISRDNAKNTVYLQMNSLKPEDTAVYYCNALIYLADRRDGYYSYDYWGQGTQVTVSS
notes: Form: Dimer
B9: PP1106 MBP-5HVZ-PAPA-RN-21-H6 (VHH)
VHH: QVQLVESGGGLVQPGGSLRLSCAASGLQTSDNAMHWFRQAPGKNRELVAGLTSGTSRNYGDSVKGRFTISRDNAKNTVYLQMNSLKPEDTAVYYCAAFPDVGDASSIGFVYWGQGTQVTVSS
notes: Form: Dimer
B10: PP1107 MBP-5HVZ-PAPA-RN-22-H6 (VHH)
VHH: QVQLVESGGGLVQPGGSLRLSCAASGSISEINLLHWFRQAPGKQREWVATMTSGGSTDYADSVKGRFTISRDNAKNTVYLQMNSLKPEDTAVYYCAADEFTKYGHGRYWGQGTQVTVSS
notes: Form: Dimer
B11: PP1108 MBP-5HVZ-PAPA-RN-23-H6 (VHH)
VHH: QVQLVESGGGLVQPGGSLRLSCAASGGEKSISAAHWYRQAPGKEREFVAAITAASTTSYADSVKGRFTISRDNAKNTVYLQMNSLKPEDTAVYYCTAVLYDSYDYWGQGTQVTVSS
notes: Form: Dimer
B12: PP1109 MBP-5HVZ-PAPA-RN-25-H6 (VHH)
VHH: QVQLVESGGGLVQPGGSLRLSCAASGEDYSYNAAHWFRQAPGKEREWVAAINSGGGTYYADSVKGRFTISRDNAKNTVYLQMNSLKPEDTAVYYCAYLGALDRDGYDAWGQGTQVTVSS
notes: Form: Dimer
B13: PP1110 MBP-5HVZ-PAPA-RN-26-H6 (VHH)
VHH: QVQLVESGGGLVQPGGSLRLSCAASGSISSINSMHWYRQAPGKEREWVAAVSSYGSDYYADSVKGRFTISRDNAKNTVYLQMNSLKPEDTAVYYCAARTVTGFTYGDYWGQGTQVTVSS
notes: Form: Dimer
B14: PP1111 MBP-5HVZ-PAPA-RN-27-H6 (VHH)
VHH: QVQLVESGGGLVQPGGSLRLSCAASGPQFSSNAVSWFRQAPGKEREWVAGITSGGSTDYADSVKGRFTISRDNAKNTVYLQMNSLKPEDTAVYYCTAPSVSDADRRTRDYWGQGTQVTVSS
notes: Form: Dimer
B15: PP1112 MBP-5HVZ-PAPA-RN-28-H6 (VHH)
VHH: QVQLVESGGGLVQPGGSLRLSCAASGSQFSHNLMSWFRQAPGKQREFVAAITSFGSTGYADSVKGRFTISRDNAKNTVYLQMNSLKPEDTAVYYCAALSSEDTSHYPRNYWGQGTQVTVSS
notes: Form: Dimer
B16: PP1113 MBP-5HVZ-PAPA-RN-29-H6 (VHH)
VHH: QVQLVESGGGLVQPGGSLRLSCAASGYILSENLTAWFRQAPGKAREVVATVTSGDYTNYDDSVKGRFTISRDNAKNTVYLQMNSLKPEDTAVYYCAAGTSDWEVKWSHWGQGTQVTVSS
notes: Form: Dimer
B17: PP1114 MBP-5HVZ-PAPA-RN-30-H6 (VHH)
VHH: QVQLVESGGGLVQPGGSLRLSCAASGIPASYLNMHWFRQAPGKQREWVAGAGGTNSNYYQDSVKGRFTISRDNAKNTVYLQMNSLKPEDTAVYYCAALDGAESYDYVYPVWGQGTQVTVSS
notes: Form: Dimer
B18: PP1115 MBP-5HVZ-PAPA-RN-31-H6 (VHH)
VHH: QVQLVESGGGLVQPGGSLRLSCAASGSTGSDYAMHWFRQAPGKDREWVAGISSYGSDSYGDSVKGRFTISRDNAKNTVYLQMNSLKPEDTAVYYCAALQASAGAGYYYDYWGQGTQVTVSS
notes: Form: Dimer
B19: MBP-5HVZ-R2E-F4-H6 (VHH, not shown: large carriers; small tags and cut ends)
VHH: QVQLVESGGGLVQPGGSLRLSCAASGETFSSNAMHWFRQAPGKGREFVAAITSGGNDNYSDSVKGRFTISRDNAKNTVYLQMNSLKPEDTAVYYCNAPATEDTSHYPRNYWGQGTQVTVSS
B20: MBP-5HVZ-R5A-A1-H6 (VHH, not shown: large carriers; small tags and cut ends)
VHH: QVQLVESGGGLVQPGGSLRLSCAASGAELSYTAIHWFRQAPGKQREFVATINSGGSSYYADSVKGRFTISRDNAKNTVYLQMNSLKPEDTAVYYCTALLDSTYDYWGQGTQVTVSS
B21: MBP-R5A-A5-H6 (VHH, not shown: large carriers; small tags and cut ends)
VHH: QVQLVESGGGLVQPGGSLRLSCAASGSAFATNGLHWFRQAPGKQREFVAGITSNGSINYKDSVKGRFTISRDNAKNTVYLQMNSLKPEDTAVYYCTALLMSYGGGEEYDYWGQGTQVTVSS
B22: MBP-5HVZ-R5A-A5-H6 (VHH, not shown: large carriers; small tags and cut ends)
VHH: B21 VHH
B23: MBP-5HVZ-R5A-B3-H6 (VHH, not shown: large carriers; small tags and cut ends)
VHH: QVQLVESGGGLVQPGGSLRLSCAASGQLDRSNAMAWFRQAPGKGREWVASITSGASTQYADSVKGRFTISRDNAKNTVYLQMNSLKPEDTAVYYCAADRYRAIQRTQYSWGQGTQVTVSS
B24: R5A-C5 (competition ELISA sample) (VHH)
VHH: QVQLVESGGGLVQPGGSLRLSCAASGDIFSINALHWFRQAPGKQREEVAAITSGGSTGYADSVKGRFTISRDNAKNTVYLQMNSLKPEDTAVYYCAAQQARGGLDSDYWGQGTQVTVSS
B25: MBP-5HVZ-R5A-D4-H6 (VHH, not shown: large carriers; small tags and cut ends)
VHH: QVQLVESGGGLVQPGGSLRLSCAASGSAMMINRTHWFRQAPGKEREGVAGITWQGSTYYADSVKGRFTISRDNAKNTVYLQMNSLKPEDTAVYYCNAVAPVHENENYWGQGTQVTVSS
B26: MBP-5HVZ-R5A-D6-H6 (VHH, not shown: large carriers; small tags and cut ends)
VHH: QVQLVESGGGLVQPGGSLRLSCAASGNDWYINSAHWYRQAPGKEREFVASVSRGGSNNYRDSVKGRFTISRDNAKNTVYLQMNSLKPEDTAVYYCAALLETSSGDYTYWGQGTQVTVSS
B27: MBP-5HVZ-R5C-A1-H6 (VHH, not shown: large carriers; small tags and cut ends)
VHH: QVQLVESGGGLVQPGGSLRLSCAASGLDVSINFMHWYRQAPGKEREGVAGITWQGSTYYADSVKGRFTISRDNAKNTVYLQMNSLKPEDTAVYYCATVWAGGTPNDYWGQGTQVTVSS
B28: PP912 MBP-5HVZ-S2b-G8-H6 (VHH)
VHH: QVQLVESGGGLVQPGGSLRLSCAASGSIQSYEAMHWFRQAPGKAREWVAVITWGDSTQYGDSVKGRFTISRDNAKNTVYLQMNSLKPEDTAVYYCAADVRQGYSSWGQGTQVTVSS
notes: Form: Dimer
B29: PP930 MBP-5HVZ-R2b-D4-H6 (VHH)
VHH: QVQLVESGGGLVQPGGSLRLSCAASGSYASIASMHWFRQAPGKQREFVAGLTSGGSRIYGDSVKGRFTISRDNAKNTVYLQMNSLKPEDTAVYYCTALILHYAGMYDYWGQGTQVTVSS
notes: Form: Dimer
B30: PP1099 MBP-5HVZ-PAPA-RN-12-H6 (VHH)
VHH: QVQLVESGGGLVQPGGSLRLSCAASGSSFEGNAVHWFRQAPGKNREFVATITTSTSYYYADSVKGRFTISRDNAKNTVYLQMNSLKPEDTAVYYCAARLKDRGPQSEYDYWGQGTQVTVSS
notes: Form: Dimer
B31: PP1153 MBP-5HVZ-PAPA-R5d-D4-H6 (VHH)
VHH: QVQLVESGGGLVQPGGSLRLSCAASGSDFTINAMHWFRQAPGKQREFVATITSTSSTAYRDSVKGRFTISRDNAKNTVYLQMNSLKPEDTAVYYCAAFAVRDADTAGWTARDYWGQGTQVTVSS
notes: Form: Dimer
B32: PP1154 MBP-5HVZ-PAPA-R5d-G1-H6 (VHH)
VHH: QVQLVESGGGLVQPGGSLRLSCAASGSIFGINDVHWFRQAPGKEREFVATITNGLSARYKDSVKGRFTISRDNAKNTVYLQMNSLKPEDTAVYYCAAQVYITTYELYDYWGQGTQVTVSS
notes: Form: Dimer

Assays:
[1] = target: T1, recombinant SARS-CoV-2 RBD with C-terminal AviTag (SARS-CoV-2, UniProt P0DTC2 319-541)
[2] = target: SARS-COV-2 Wuhan Reference RBD (SARS-CoV-2, UniProt P0DTC2 319-541); test: ELISA, RBD coated
[3] = target: T1, recombinant SARS-CoV-2 RBD with …; test: ELISA, competition with coated ACE2-Fc for RBD [Cont. 9]
[4] = target: T1, recombinant SARS-CoV-2 RBD with …; remark: listed apart in the source

Binder	EC50 [2] [nM]	IC50 [3] [nM]	other results
B1	–	–	IC50 [1]: 4.5 nM; Kd [1]: 6.13 nM
B2	–	–	Kd [1]: ~1370 nM
B3	–	–	IC50 [1]: 9.2 nM
B4	1.56	13.9	–
B5	0.97	2.4	–
B6	2.4	53.3	–
B7	1.21	3.5	–
B8	1.24	7.2	–
B9	2.52	9.7	–
B10	0.27	3.9	–
B11	2.61	380	–
B12	1.06	29.6	–
B13	3.5	156	–
B14	0.33	9.4	–
B15	1.36	10.5	–
B16	0.34	4.9	–

Binder	EC50 [2] [nM]	IC50 [3] [nM]	other results
B17	1.14	3.4	–
B18	4.9	11.6	–
B19	–	–	IC50 [4]: 6.3 nM; Kd [4]: 11.4 nM
B20	–	–	IC50 [4]: 3.4 nM; Kd [4]: 29 nM
B21	–	–	Kd [4]: ~920 nM
B22	–	–	IC50 [4]: 4.4 nM; Kd [4]: 24.7 nM
B23	–	–	IC50 [4]: 35.9 nM; Kd [4]: ~1200 nM
B24	–	–	IC50 [4]: 1.4 nM; Kd [4]: 7.04 nM
B25	–	–	IC50 [4]: 5.7 nM; Kd [4]: 21.1 nM
B26	–	–	IC50 [4]: 223 nM; Kd [4]: 35 nM
B27	–	–	IC50 [1]: 10.3 nM; Kd [1]: 379 nM
B28	2.33	–	–
B29	3.18	–	–
B30	4.24	–	–
B31	1.23	–	–
B32	2.42	–	–
